According to patent US8209131B2, “Therapeutic heparins and their binding to interleukins 4 and 5 and PECAM-1” (Curtin University of Technology, priority 2004, dated 2012):
Changes are numbered by the printed parent chain. In names and notes the source's numbering stands.

B1: R85A: IL-4 mutant, baculovirus expressed (protein)
chain: HKCDITLQEIIKTLNSLTEQKTLCTELTVTDIFAASKNTTEKETFCRAATVLRQFYSHHEKDTRCLGATAQQFHRHKQLIRFLKALDRNLWGLAGLNSCPVKEANQSTLENFLERLKTIMREKYSKCSS
B2: R75A: IL-4 mutant, baculovirus expressed (protein)
chain: B1 chain with R75A, A85R
B3: K42A: IL-4 mutant, baculovirus expressed (protein)
chain: B1 chain with K42A, A85R
B4: R53A: IL-4 mutant, baculovirus expressed (protein)
chain: B1 chain with R53A, A85R
B5: R121A: IL-4 mutant, baculovirus expressed (protein)
chain: B1 chain with A85R, R121A
B6: K84A: IL-4 mutant, baculovirus expressed (protein)
chain: B1 chain with K84A, A85R
B7: K77A/R53A: IL-4 double mutant (protein)
chain: B1 chain with R53A, K77A, A85R
B8: K77A/R81A: IL-4 double mutant (protein)
chain: B1 chain with K77A, R81A, A85R
B9: K77A: IL-4 mutant, baculovirus expressed (protein)
chain: B1 chain with K77A, A85R
B10: K12A: IL-4 mutant, baculovirus expressed (protein)
chain: B1 chain with K12A, A85R
B11: E9A: IL-4 mutant, baculovirus expressed (protein)
chain: B1 chain with E9A, A85R
B12: R81A: IL-4 mutant, baculovirus expressed (protein)
chain: B1 chain with R81A, A85R
B13: K77A/K84A: IL-4 double mutant (protein)
chain: B1 chain with K77A, K84A, A85R
B14: H74A: IL-4 mutant, baculovirus expressed (protein, UniProt P05112 25-153, looked up, variant H74A)
Interleukin-4: B1 chain with H74A, A85R
B15: K77A/K12A: IL-4 double mutant (protein, UniProt P05112 25-153, looked up, variant K77A K12A)
Interleukin-4: B1 chain with K12A, K77A, A85R
B16: K77A/R85A: IL-4 double mutant (protein, UniProt P05112 25-153, looked up, variant K77A R85A)
Interleukin-4: B1 chain with K77A
B17: E60A: IL-4 mutant, baculovirus expressed (protein)
chain: B1 chain with E60A, A85R
B18: D87A: IL-4 mutant, baculovirus expressed (protein, UniProt P05112 25-153, looked up, variant D87A)
Interleukin-4: B1 chain with A85R, D87A
B19: K77A/R88V: IL-4 double mutant (protein, UniProt P05112 25-153, looked up, variant K77A R88V)
Interleukin-4: B1 chain with K77A, A85R, R88V
B20: βc: IL-3, IL-5 and GM-CSF common receptor β extracellular domain fused to flag tag (protein, UniProt P32927 17-443, looked up)
extracellular domain: WERSLAGAEETIPLQTLRCYNDYTSHITCRWADTQDAQRLVNVTLIRRVNEDLLEPVSCDLSDDMPWSACPHPRCVPRRCVIPCQSFVVTDVDYFSFQPDRPLGTRLTVTLTQHVQPPEPRDLQISTDQDHFLLTWSVALGSPQSHWLSPGDLEFEVVYKRLQDSWEDAAILLSNTSQATLGPEHLMPSSTYVARVRTRLAPGSRLSGRPSKWSPEVCWDSQPGDEAQPQNLECFFDGAAVLSCSWEVRKEVASSVSFGLFYKPSPDAGEEECSPVLREGLGSLHTRHHCQIPVPDPATHGQYIVSVQPRRAEKHIKSSVNIQMAPPSLNVTKDGDSYSLRWETMKMRYEHIDHTFEIQYRKDTATWKDSKTETLQNAHSMALPALEPSTRYWARVRVRTSRTGYNGIWSEWSEARSWDTESVLPMW
modifications: extracellular domain Flag tag
notes: IL-3, IL-5 and GM-CSF common receptor β extracellular domain fused to flag tag

system: TF1.8 cells; experiment: TF1.8 bioassay of IL-4 mutants (support of proliferation); format: cell-based, human; conditions: IL-4 wt and mutants, TF1.8 cells
Protocol: TF-1.8 cells have been transfected with the firefly luciferase gene contained in the expression vector, pPGK-puromycin-luciferase (Coombe et al., 1998, Supra). The positive transfectants are cloned to produce a line with good luciferase expression. The proliferation assays are carried out in 96-well microplates suitable for such assays Falcon). The wells are flat bottomed, with white sides and a clear bottom. Cells are washed to remove any cytokine in the growth medium and then resuspended in RPMI/5% w/v FCS. The cells are counted with a Coulter Multisizer (Coulter Electronics, England) and routinely 2.5×10^4 cells are added to microplate wells that contain either no IL-4 (negative control) or various dilutions of IL-4. When the effect of HLGAGs, chondroitin sulfate C, or the heparin fractions of a particular length, or heparin fragments of a particular length and structure is to be measured, the wells also contain various concentrations of these molecules.
The cells proliferate for 48 hours at 37° C. in a humidified atmosphere, after which the luciferase activity is measured by the addition of 50 μl of luciferase substrate buffer (50 mm Tris-HCl, pH 7.8, 15 mM MgSO4, 33.3 mM DTT, 0.1 mM EDTA, 0.5 mM Na-luciferin, 0.5 mM ATP, 0.25 mM lithium Co A and 0.5% v/v Triton X-100). Immediately after the addition of the luciferase buffer the plate is assayed for luciferase activity. Light emissions are detected on a Victor 1420 Multilabel counter (Wallac, Turku, Finland).
IL-4 mutants were compared with WT for their ability to support the proliferation of TF1.8 cells. Titration curves were performed for each of the mutants and the concentration needed to support 50% of cell growth was determined.

Molecule | Conc needed for 50% growth, average [ng/mL]
B1 | 0.71
B2 | 0.63
B3 | 0.67
B4 | 9.39
B5 | 1.01
B6 | 2.95
B7 | 11.3
B8 | 1.65
B9 | 1.55
B10 | 0.6
B11 | 76.1
B12 | 4.85
B13 | 1.69

same assay, conditions: compared with WT

Molecule | proliferative activity of IL-4 mutants
B4 | slightly decreased proliferative activity
B6 | slightly decreased proliferative activity
B11 | markedly decreased proliferative activity
B12 | slightly decreased proliferative activity

system: not listed separately; experiment: BIAcore binding of proteins to heparin immobilised on a biosensor chip; conditions: not given
Source text: This technology uses the optical phenomenon of surface plasmon resonance to monitor physical interactions between molecules. Passing the protein solution over a sensor surface to which the ligand is coupled monitors the real-time binding of proteins to an immobilized ligand. Detection is achieved by measuring refractive index changes very close to the sensor surface. When the refractive index is altered, the angle at which plasmon resonance occurs changes and this change directly correlates with the amount of protein interacting with the surface. A BIAcore 2000 is conveniently used. It is very sensitive and its microfluidics ensures that only small amounts of material are required.
The HLGAGs are immobilized on the biosensor chip. Intact HLGAGs are biotinylated via amino groups, or reducing termini modified with ammonia by reductive amination, using sulfo-NHS-biotin. Biotinylated HLGAGs are immobilized on streptavidin-coupled sensor chips. Solutions containing proteins of interest are injected over the sensor chip surface, and the binding is measured in real time (Fernig, In: Proteoglycan protocols, Ed. R.V. Iozzo, Humana Press, Totowa, N.J., USA, 2001). […] In all cases binding is specific, as there is little or no interaction with sensor chips lacking heparin with any of the targeted proteins, and binding is inhibited by exogenous heparin. Initial analyzes indicate that the binding of rhIL-5 to heparin has affinity constants of the order from 50-5×10^−9. Because unsubstituted amines are variably present in heparan sulfates from different tissues, an alternative method of biotin labeling is recommended for the heparan sulfate chip. In this case, heparan sulfate is labeled via oxidized cis-diol residues using biotinyl-LC-hydrazine. […]
Binding experiments with these proteins has indicated to which PECAM-1 domains heparin binds. Two binding assays were used: the assay where PECAM-1 is reacted with a BIAcore biosensor chip to which heparin has been immobilised and the second assay is the binding of PECAM-1 to heparan sulfate on the cell surface.
Site directed mutagenesis was performed on IL-4. Basic residues within the proposed heparin binding site were changed to alanine and the proteins expressed using the baculovirus expression system. The one exception was R88 which was changed to valine. Insect cell expressed proteins were purified on an anti-IL-4 affinity column and checked for purity by SDS-PAGE and silver staining. Mutant IL-4 proteins were examined for their ability to bind heparin immobilised on a biosensor chip and binding assessed using a BIAcore 2000.

Molecule | heparin binding of IL-4 mutant relative to wild type
B1 | stronger binding than the wild type

same assay, conditions: IL-4 WT and mutants binding to heparin; in M-1s-1 (unit assumed)

Molecule | ka
B1 | 1.04E+05
B2 | 3.32E+04
B3 | 4.63E+04
B4 | 5.83E+04
B5 | 5.13E+04
B14 | 2.05E+04
B6 | 3.06E+04
B15 | 1.65E+04
B16 | 1.51E+04
B7 | 1.79E+04
B17 | 8.44E+04
B8 | 9.82E+03
B18 | 4.42E+04
B9 | 6.42E+03
B10 | 5.03E+04
B11 | 1.72E+05
B12 | 2.43E+04
B13 | 1.26E+04
B19 | 1.36E+04

same assay, conditions: IL-4 WT and mutants binding to heparin; in s-1 (unit assumed)

Molecule | kd
B1 | 2.42E−03
B2 | 3.63E−03
B3 | 2.50E−03
B4 | 5.40E−03
B5 | 2.13E−03
B14 | 6.37E−04
B6 | 2.57E−03
B15 | 3.44E−03
B16 | 1.78E−03
B7 | 3.08E−03
B17 | 2.76E−03
B8 | 1.55E−03
B18 | 1.59E−03
B9 | 2.24E−03
B10 | 3.95E−03
B11 | 8.45E−03
B12 | 2.37E−03
B13 | 2.23E−03
B19 | 1.94E−03

same assay, conditions: IL-4 WT and mutants binding to heparin; read-out: KD

Molecule | Kd [nM]
B1 | 23.4
B2 | 109
B3 | 53.9
B4 | 92.5
B5 | 41.5
B14 | 31.1
B6 | 83.9
B15 | 209
B16 | 117
B7 | 172
B17 | 32.7
B8 | 158
B18 | 36
B9 | 349
B10 | 78.5
B11 | 49.3
B12 | 97.8
B13 | 176
B19 | 142

same assay, conditions: recombinant proteins, FIG. 2

Molecule | binding to immobilized heparin
B20 | binds to heparin
